Positions count from the first letter of the chain named. In names and notes the source's numbering stands.
B1: G88P3: 1395-bp shortened derivative of G88P2 promoter (SEQ ID NO: 45) (nucleic acid, listed as Homo sapiens)
DNA: TCTAGATGTACCACTGACATCTGCTTTAAATCTTTTGCCCATTTCATTTTTACCCTCTAACCATTTCATTACTAAAACACAAAACAAACTCCGGAAAGGAGTTTGTTGATGAGAAAACACTGAAAGTACGATTTAAATTGAGGAATGGAGATTTTCTGTGGATAATTGTCTATGTTCCACTTTACCAAAGAAAAATGAATTTCAAGTAGTGCATAAAGTAATTCTCGTTAAAAAATGTGGGAATAAAGAGATCAGTCCTGGGTACTGGGAATATATTTATCTCACAGAAAAATCTTGCCCACAAAATGCATCAGACTGAGATGAAATACTCTAGGGTATATTAAATTTTATTCTAATATTGAAGGGAGGGAAAAAAAGGACGGAAAGAAAAATGAAACAGGATGAAAAATAAGGTGATTGGGAGAGAGAAAAGACAGAGAAACTTGTTAACGACAGGACTTTCTGAGCAAGATATTTTTCTTCCTTTTACAAGTTGGAAGCTATTGAATAATTCATGCCAAGCGTGGAAAGGCTGTCTTTTCCCTGGATGATGTATAACTAAGCAGGAGAGAGCTTCGAGTGGGTTCACCACATCAGCCACCACTCCTGCTTCTGAGCACAGGGTGCTCTCCTCTTGAGCTCAGCTTCTGCTTTTGCAGCCAAGCATTCTTGCTGCTGCTGCCTGCCTGCCCACCCGCCTGGGCTTGCAGCCCGCCACTTTACTTTCTCCAGCCCTGATACCAGCTGAGAAGTCTCCCTGCAGCTGCTAGTTCCTGCCCAGGACCATGTGTGTGGATGCTGCTTGGGAGAAGCGGGCACTTGCTCCTGGCACTGATCCCAGCTGAGTTTCTCCTGTTGATTTCTGGACCACTGATGCTGTTGCTGAGGAGGTATTTCCCGGCATCCCTCCCCCTGAGACACCGGCTAAGGACCAGCCTAAACGCAAGGTAACCTTCACCTCTTTCCCATGGGATTTTCCCCAGCTGGGATATCTCTGCTTTCTCCTGGAACTAGGTCCTCCAGCTGGCAACATATCTCTCTCTCTCTCTCTCTCTCTCTCTCTCTCTCTCTGTGTGTGTGTGTGTGTGTTGGGGGAGAAGAGGAGACTGTTTTAGGTATTGCTCTGTCCTAGGGCTTCCCCGATACCTGCTGAATCCAATGCAAAGTGGCCTTTCCCCTGGCTCTGGAGACATTTCCGAGGCAGGCACCTGTCATTTGCCACCCCCGTCCTCCTCCTCGAGCTCCCTTTCTCCCCCTCCCCCAGCCCATTATTCTGCTTCAGCCTTTTGTGTCAGTGGCAGAGGGCTGAAGGGATGTCTTTGCCCTTCTGGCAGGCAGGACAGTGTCAGGATGGACCGCGCTGCCAGAAGCCGACGCTAGCGAGGGAGGTGTGAA
B2: AAV8R4: AAV8R capsid mutant R490Q (SEQ ID NO: 5) (protein)
chain: MAADGYLPDWLEDNLSEGIREWWALKPGAPKPKANQQKQDDGRGLVLPGYKYLGPFNGLDKGEPVNAADAAALEHDKAYDQQLQAGDNPYLRYNHADAEFQERLQEDTSFGGNLGRAVFQAKKRVLEPLGLVEEGAKTAPGKKRPVEPSPQRSPDSSTGIGKKGQQPARKRLNFGQTGDSESVPDPQPLGEPPAAPSGVGPNTMAAGGGAPMADNNEGADGVGSSSGNWHCDSTWLGDRVITTSTRTWALPTYNNHLYKQISNGTSGGATNDNTYFGYSTPWGYFDFNRFHCHFSPRDWQRLINNNWGFRPKRLSFKLFNIQVKEVTQNEGTKTIANNLTSTIQVFTDSEYQLPYVLGSAHQGCLPPFPADVFMIPQYGYLTLNDGSQAVGRSSFYCLEYFPSQMLRTGNNFQFTYTFEDVPFHSSYAHSQSLDRLMNPLIDQYLYYLSRTQTTGGTANTQTLGFSQGGPNTMANQAKNWLPGPCYRQQQVSTTTGQNNNSNFAWTAGTKYHLNGRNSLANPGIAMATHKDDEERFFPSNGILIFGKQNAARDNADYSDVMLTSEEEIKTTNPVATEEYGIVADNLQRGNLADQDYTKTARQAATADVNSQGALPGMVWQNRDVYLQGPIWAKIPHTDGNFHPSPLMGGFGLKHPPPQILIKNTPVPADPPTTFNQSKLNSFITQYSTGQVSVEIEWELQKENSKRWNPEIQYTSNYYKSINVDFAVNTEGVYSEPRPIGTRYLTRNL
B3: AAV8R9: AAV8R capsid mutant V125I + F536Y (SEQ ID NO: 10) (protein)
chain: B2 chain with V125I, Q490R, F536Y
B4: AAV8R6: AAV8R capsid mutant F536Y (SEQ ID NO: 7) (protein)
chain: B2 chain with Q490R, F536Y
B5: AAV8R14: AAV8R capsid mutant V125I + A606S + T495A (SEQ ID NO: 15) (protein)
chain: B2 chain with V125I, Q490R, T495A, A606S
B6: AAV8R10: AAV8R capsid mutant V125I + A606S (SEQ ID NO: 11) (protein)
chain: B2 chain with V125I, Q490R, A606S
B7: AAV8R2: AAV8R capsid mutant N411S (SEQ ID NO: 3) (protein)
chain: B2 chain with N411S, Q490R
B8: AAV8R5: AAV8R capsid mutant V125I (SEQ ID NO: 6) (protein)
chain: B2 chain with V125I, Q490R
B9: AAV8R7: AAV8R capsid mutant A606S (SEQ ID NO: 8) (protein)
chain: B2 chain with Q490R, A606S
B10: AAV8R13: AAV8R capsid mutant V125I + F536Y + T495A (SEQ ID NO: 14) (protein)
chain: B2 chain with V125I, Q490R, T495A, F536Y
B11: AAV8R1: AAV8R capsid mutant V183E (SEQ ID NO: 2) (protein)
chain: B2 chain with V183E, Q490R
B12: AAV8R3: AAV8R capsid mutant Y447F (SEQ ID NO: 4) (protein)
chain: B2 chain with Y447F, Q490R
B13: AAV8R11: AAV8R capsid mutant V125I + T495A (SEQ ID NO: 12) (protein)
chain: B2 chain with V125I, Q490R, T495A
B14: AAV8R8: AAV8R capsid mutant T495A (SEQ ID NO: 9) (protein)
chain: B2 chain with Q490R, T495A

Assays:
[1] = tested on: striatonigral projection neurons (striatal MSNs); assay: Retrograde labeling of striatal MSNs after AAV injection into the SNr (EYFP+ cell counting); format: in vivo, mice; conditions: for reporter-labeled MSNs by promoter (FIG. 4B): SNr injection, n=3 mice, mean±SEM; for Activity Level STR: striatum, numbers of YFP-expressing neurons per animal; for Labeling Efficiency in Striatonigral Pathway: AAV8R capsid mutants, numbers of labeled neurons per animal
Source text: (§1) Brain profiles of two epigenetic marks for enhancers and promoters, monomethylation of histone H3 lysine 4 (H3K4me1) and acetylation of histone H3 lysine 27 (H3K27ac) were checked and approximately 2 kilobase-long sequences around the transcriptional start site (TSS) that have high levels of H3K4me1 and/or H3K27ac were identified in mouse brain. Homologous sequences at equivalent positions of the human genome were then cloned onto an AAV backbone, and the activity of the homologous sequences in directing reporter expression was tested in mice after injections of AAVs into the SNr (FIG. 3A-C, TABLE 3).
(§2) Mice were anesthetized with sodium pentobarbital (Nembutal; 80 mg/kg, i.p.), and then placed into a stereotaxic device (KOPF). Eye cream was applied on both corneas to avoid dehydration. The skull above the targeted areas was thinned with a dental drill and carefully removed. Injections were conducted with a 10 μL syringe connected to a 33-Gauge needle (Neuros; Hamilton), using a microsyringe pump (Legato 130, KD Scientific). A total volume of 200 nL virus was injected into the SNr at a speed of 20 nL/min. The coordinates for the SNr were 3.4 mm posterior, 1.3 mm lateral, 4.8 mm ventral to the bregma.
(§3) Images were acquired using a confocal microscope (Carl Zeiss, LSM880) and an Axiolmager.Z1 microscope with apotome (Carl Zeiss). Brain structures were identified microscopically and in digital photos using a mouse brain atlas. To analyze the number of EYFP+ cells in the striatum, slices from rostral to caudal striatum were used. Every sixth section was analyzed, and numbers of EYFP+ cells were multiplied by six to acquire the approximate total number and mean number of cells per animal. Images were processed using ImageJ (NIH, USA), and final quantifications were independently performed manually by two blinded experimenters.

substantia nigra = assay: Promoter activity level in substantia nigra after AAV injection into the SNr; format: in vivo, mice; conditions: numbers of YFP-expressing neurons per animal
Source text: as §1, §2, §3

Row | Molecule | Labeling Efficiency in Striatonigral Pathway [1] | also measured
1 | G88P2: 2259-bp promoter from the gene GPR88 (SEQ ID NO: 44) |  | reporter-labeled MSNs by promoter (FIG. 4B) [1]: 36290±3705; Activity Level STR [1]: ++++ (>25k); Activity Level SN (substantia nigra): + (<5k)
2 | R9P1: tested promoter from gene RGS9, 2152 bp (SEQ ID NO: 47) |  | Activity Level STR [1]: +++ (10k-25k); Activity Level SN (substantia nigra): + (<5k)
3 | B1 |  | reporter-labeled MSNs by promoter (FIG. 4B) [1]: 37026±6646; Activity Level STR [1]: ++++ (>25k); labeled MSNs per mouse ([1]; viruses expressing EYFP, injection into the SNr (FIG. 4B)): 3.7±0.66 ×104 MSNs per mouse; Activity Level SN (substantia nigra): + (<5k)
4 | B2 | + (<5k) | 
5 | B3 | + (<5k) | 
6 | B4 | + (<5k) | 
7 | B5 | ++ (5k-10k) | 
8 | B6 | + (<5k) | 
9 | B7 | + (<5k) | 
10 | B8 | + (<5k) | 
11 | B9 | + (<5k) | 
12 | B10 | ++ (5k-10k) | 
13 | B11 | + (<5k) | 
14 | B12 | + (<5k) | 
15 | B13 | + (<5k) | 
16 | B14 | + (<5k) | 

— patent US20250381307A1, “RETRO-AAV AND USE IN TREATING NEURODEGENERATIVE DISEASES” (priority 2023, published 2025)
